Article PMC3338774, “Crystal Structure of ChrR—A Quinone Reductase with the Capacity to Reduce Chromate” (PLoS ONE, 2012)

T1: ChrR (Escherichia coli, UniProt P0AGE6)
T1 construct: full-length recombinant from E. coli BL21 (DE3), pET28a (His) or pTYB3 (intein), tags removed by thrombin or DTT; untagged WT crystallized; tetramer; residues 4-184 (chain A) and 4-185 (chain B) seen in crystal
T1 sequence (P0AGE6 1-188): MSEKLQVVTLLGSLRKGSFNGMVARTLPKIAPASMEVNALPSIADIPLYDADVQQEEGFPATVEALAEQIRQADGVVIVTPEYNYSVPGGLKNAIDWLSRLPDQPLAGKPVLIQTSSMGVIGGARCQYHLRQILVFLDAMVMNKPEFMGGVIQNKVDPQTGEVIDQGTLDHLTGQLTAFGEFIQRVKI


Key:
ChrR = molecular target: T1, ChrR; test: X-ray crystallography, […] Å; format: binding; settings: bound at active site, non-covalent; crystals at PEG8000, NaCl, calcium acetate
[1] = molecular target: the molecule itself; test: crystal structure; untagged wild type ChrR at 26 mg/mL, sitting drop vapor diffusion, PEG8000, sodium chloride, calcium acetate; 2.2 Å, space group P6(3)22; two molecules (a homo-dimer) in the asymmetric unit, tetramer formed by two symmetry related dimers
[2] = molecular target: the molecule itself; test: SEC; analytic Superdex 200 10/300 column, 0.5 mL per min; proteins pre-incubated with FMN (1 mM, 2 h); various protein concentrations, including those used for measuring the enzyme activity

Molecule	stoichiometry N [2]	other results
Cc1cc2nc3c(=O)[nH]c(=O)nc-3n(C[C@H](O)[C@H](O)[C@H](O)COP(=O)(O)O)c2cc1C [FMN, flavin mononucleotide]	–	X-ray crystallography, 2.2 Å (ChrR): FMN is anchored by several hydrogen bonds to a typical strand-loop-helix nucleotide-binding motif
Escherichia coli ChrR enzyme, wild type (enzyme, ChrR, quinone reductase with chromate reductase activity, Escherichia coli; the crystal structure models residues 4-184 (chain A) and 4-185 (chain B); The crystallised protein is called untagged; also called ChrR WT; native ChrR; source: E. coli BL21 (DE3), purified (His-Trap nickel or chitin bead column, tag removed, gel filtration on Superdex 200)) EKLQVVTLLGSLRKGSFNGMVARTLPKIAPASMEVNALPSIADIPLYDADVQQEEGFPATVEALAEQIRQADGVVIVTPEYNYSVPGGLKNAIDWLSRLPDQPLAGKPVLIQTSSMGVIGGARCQYHLRQILVFLDAMVMNKPEFMGGVIQNKVDPQTGEVIDQGTLDHLTGQLTAFGEFIQRVKI	–	stoichiometry N [1]: 4
ChrR41 (Glu146Thr) (enzyme, Escherichia coli, ChrR, Escherichia coli, with Glu146Thr; PDB 3SVL is the wild-type parent; source: E. coli BL21 (DE3), pET28a, purified (His-Trap nickel column, tag removed, gel filtration)) EKLQVVTLLGSLRKGSFNGMVARTLPKIAPASMEVNALPSIADIPLYDADVQQEEGFPATVEALAEQIRQADGVVIVTPEYNYSVPGGLKNAIDWLSRLPDQPLAGKPVLIQTSSMGVIGGARCQYHLRQILVFLDAMVMNKPTFMGGVIQNKVDPQTGEVIDQGTLDHLTGQLTAFGEFIQRVKI	4	–
ChrR42 (Tyr85Asn) (enzyme, Escherichia coli, ChrR, Escherichia coli, with Tyr85Asn; PDB 3SVL is the wild-type parent; source: E. coli BL21 (DE3), pET28a, purified (His-Trap nickel column, tag removed, gel filtration)) EKLQVVTLLGSLRKGSFNGMVARTLPKIAPASMEVNALPSIADIPLYDADVQQEEGFPATVEALAEQIRQADGVVIVTPEYNNSVPGGLKNAIDWLSRLPDQPLAGKPVLIQTSSMGVIGGARCQYHLRQILVFLDAMVMNKPEFMGGVIQNKVDPQTGEVIDQGTLDHLTGQLTAFGEFIQRVKI	4	–
ChrR21 (Tyr128Asn) (enzyme, Escherichia coli, ChrR, Escherichia coli, with Tyr128Asn; PDB 3SVL is the wild-type parent; source: E. coli BL21 (DE3), pET28a, purified (His-Trap nickel column, tag removed, gel filtration)) EKLQVVTLLGSLRKGSFNGMVARTLPKIAPASMEVNALPSIADIPLYDADVQQEEGFPATVEALAEQIRQADGVVIVTPEYNYSVPGGLKNAIDWLSRLPDQPLAGKPVLIQTSSMGVIGGARCQNHLRQILVFLDAMVMNKPEFMGGVIQNKVDPQTGEVIDQGTLDHLTGQLTAFGEFIQRVKI	4	–
ChrR43 (Arg125Met) (enzyme, Escherichia coli, ChrR, Escherichia coli, with Arg125Met; PDB 3SVL is the wild-type parent; source: E. coli BL21 (DE3), pET28a, purified (His-Trap nickel column, tag removed, gel filtration)) EKLQVVTLLGSLRKGSFNGMVARTLPKIAPASMEVNALPSIADIPLYDADVQQEEGFPATVEALAEQIRQADGVVIVTPEYNYSVPGGLKNAIDWLSRLPDQPLAGKPVLIQTSSMGVIGGAMCQYHLRQILVFLDAMVMNKPEFMGGVIQNKVDPQTGEVIDQGTLDHLTGQLTAFGEFIQRVKI	4	–
